Data on one molecule can be found in patent publication US20100135996A1 (INSTITUT NATIONAL DE LA SANTE ET DE LA RECHERCHE MEDICALE …, published 2010).

This test addresses T1, human Anti-Mullerian Hormone type II receptor (AMHR-II) (human, UniProt Q16671 18-573).
T1 construct: whole, on cells; In the western blot it was the same protein in reduced SDS-PAGE lysates of xenografts of these cells; also called hAMHR-II
T1 sequence (looked up): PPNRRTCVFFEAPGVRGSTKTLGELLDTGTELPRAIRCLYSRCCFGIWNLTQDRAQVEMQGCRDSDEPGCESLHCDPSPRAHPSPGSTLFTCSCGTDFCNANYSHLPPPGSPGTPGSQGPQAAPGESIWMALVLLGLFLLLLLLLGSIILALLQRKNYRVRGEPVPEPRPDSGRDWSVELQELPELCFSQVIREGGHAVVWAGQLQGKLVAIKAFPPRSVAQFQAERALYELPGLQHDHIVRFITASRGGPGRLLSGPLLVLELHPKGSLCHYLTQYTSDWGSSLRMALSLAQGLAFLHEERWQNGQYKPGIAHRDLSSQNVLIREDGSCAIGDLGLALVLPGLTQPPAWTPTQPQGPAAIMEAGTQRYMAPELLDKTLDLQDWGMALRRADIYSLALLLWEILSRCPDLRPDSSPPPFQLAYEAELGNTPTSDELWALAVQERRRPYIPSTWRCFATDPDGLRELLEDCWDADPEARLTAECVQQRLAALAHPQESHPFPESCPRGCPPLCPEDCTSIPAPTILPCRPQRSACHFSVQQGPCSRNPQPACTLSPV
The test is described as follows: flow cytometry of hybridoma supernatants on AMHR-II positive cells. In general terms: Flow cytometry measures light scatter and fluorescence of single cells or particles in a stream.

B1: anti-AMHR-II mAb 12G4 (antibody, mouse IgG1, V domains shown)
VH: QVQLQQSGPELVKPGASVRMSCKASGYTFTSYHIHWVKQRPGQGLEWIGWIYPGDDSTKYNEKFKGKTTLTADKSSSTAYMLLSSLTSEDSAIYFCTRGDRFAYWGQGTLVTVSA
VL: QIVLTQSPAIMSASLGEGITLTCSASSSVRYIHWYQQKSGTSPKLLIYSTSNLASGVPSRFSGSGSGTFHSLTISSVEAEDAADYYCLQWSSYPWTFGGGTKLEIK
notes: also called antibody of hybridoma CNCM I-3673
Regarding B1, the binding result is “binds”.
